Data: patent US20230374526A1, “FORSKOLIN-INDUCIBLE PROMOTERS AND HYPOXIA-INDUCIBLE PROMOTERS” (ASKLEPIOS BIOPHARMACEUTICAL, INC., priority 2020, published 2023)

B1: Synp-FORNTATAm6a: synthetic forskolin-inducible promoter, SEQ ID NO: 74; 7×cAMPRE and 6×AP1(3) with TATA-m6A minimal promoter (nucleic acid)
DNA: AATAAAATATCTTTATTTTCATTACATCTGTGTGTTGGTTTTTTGTGTGCCATTGACGTCACGATTTGACGTCAACCATTGACGTCACGATTTGACGTCAACCATTGACGTCACGATTTGACGTCACGATTTGACGTCAACCATTGACTCACGATTTGACTCAACCATTGACTCACGATTTGACTCAACCATTGACTCACGATTTGACTCACGATTTATAAAAGGCAGAGCTCGTTTAGTGAACCGAAGCTTGGACTAAAGCGGACTTGTCTCGAG
modifications: Synp-FORNTATAm6a
notes: 7×cAMPRE and 6×AP1(3) with TATA-m6A minimal promoter
B2: Synp-FORNEW: synthetic forskolin-inducible promoter, SEQ ID NO: 62; 7×cAMPRE and 6×AP1(3) with YB-TATA minimal promoter (nucleic acid)
DNA: AATAAAATATCTTTATTTTCATTACATCTGTGTGTTGGTTTTTTGTGTGCCATTGACGTCACGATTTGACGTCAACCATTGACGTCACGATTTGACGTCAACCATTGACGTCACGATTTGACGTCACGATTTGACGTCAACCATTGACTCACGATTTGACTCAACCATTGACTCACGATTTGACTCAACCATTGACTCACGATTTGACTCACGATTGCGATTAATCCATATGCTCTAGAGGGTATATAATGGGGGCCACTAGTCTACTACCAGAAAGCTTGGTACCGAGCTCGGATCCAGCCACC
modifications: Synp-FORNEW
notes: 7×cAMPRE and 6×AP1(3) with YB-TATA minimal promoter
B3: FORN-pJB42: synthetic forskolin-inducible promoter, SEQ ID NO: 73; 7×cAMPRE and 6×AP1(3) with pJB42 minimal promoter (nucleic acid)
DNA: AATAAAATATCTTTATTTTCATTACATCTGTGTGTTGGTTTTTTGTGTGCCATTGACGTCACGATTTGACGTCAACCATTGACGTCACGATTTGACGTCAACCATTGACGTCACGATTTGACGTCACGATTTGACGTCAACCATTGACTCACGATTTGACTCAACCATTGACTCACGATTTGACTCAACCATTGACTCACGATTTGACTCACGATTCTGACAAATTCAGTATAAAAGCTTGGGGCTGGGGCCGAGCACTGGGGACTTTGAGGGTGGCCAGGCCAGCGTAGGAGGCCAGCGTAGGATCCTGCTGGGAGCGGGGAACTGAGGGAAGCGACGCCGAGAAAGCAGGCGTACCACGGAGGGAGAGAAAAGCTCCGGAAGCCCAGCAGCGGCCACC
modifications: Synp-FORNpJB42
notes: 7×cAMPRE and 6×AP1(3) with pJB42 minimal promoter

Key:
[1] = system: HEK-293 cells; assay: Optimum inducer concentration to induce expression; assay type: cell-based, human
[2] = system: Pro10 cells; assay: Rep78 expression via western blot under second generation forskolin-inducible promoters; assay type: cell-based; conditions: for Rep78 expression in the presence of forskolin: 10 μM forskolin, 24 hrs; for Rep78 expression in the presence of forskolin / Rep78 expression in the absence of forskolin: western blot; for Rep78 expression in the absence of forskolin: DMSO control
Experimental: HEK293-T (ATCC-CRL-3216) cell lines were maintained in DMEM plus 10% FBS as described for HEK293 cells. Plasmids to be transfected were linearised and transfected using Lipofectamine 2000 (Invitrogen, 11668027) as per the manufacturer's instructions. The cells were then cultured for 48 hrs in non-selective medium before being switched to selective medium (standard medium plus Blasticidin 5 ug/ml (Thermofisher, A1113902).
Each of the promoters were tested for their ability to induce expression of the Rep78 protein. To eliminate the expression of Rep52, we have mutated the ATG start codon in Rep52 to an AGG. All constructs were synthesized by Genewiz. Pro10 cells were cultured and transfected using lipofectamine 2000 as previously described. 24 hrs after transfection 10 μM forskolin was added to the cells. Control wells were given DMSO as forskolin was dissolved in this carrier. After another 24 hrs the cells were then lysed and lysates were analysed for Rep78 expression via western blot.
Cells are collected in Eppendorf tubes and centrifuged at 300 g for 5 mins in a tabletop centrifuge. Supernatants are discarded and cell pellets are lysed in 1× radioimmunoprecipitation assay (RIPA) buffer, which is made up of RIPA Lysis & Extraction Buffer (Thermofisher, UK, 89900), 100×Halt Protease Inhibitor (Thermofisher, UK, 78445). After addition of the cell lysis buffer all samples are constantly kept on ice. The samples are vortexed and either stored at −20° C. overnight or kept on ice for 30 mins prior to centrifugation at full speed (21,130 g) in the tabletop centrifuge for 20 mins at 4° C. for the removal of any insoluble material. Cell lysates are mixed with 4×LDS loading sample buffer and 10× sample reducing agent (ThermoFisher, UK, NP0007 and NP0004); they are briefly spun down, heated to 95° C. for 10 mins, allowed to cool to 10° C., briefly spun down again and then separated on polyacrylamide gels (NuPAGE Novex 4-12% Bis-Tris Gels, 1.0 mm; ThermoFisher UK, NP0324BOX), which are allowed to reach room temperature before use. The PageRuler™ Prestained NIR Protein Ladder (ThermoFisher, UK, 26635) is run alongside the cell lysates for size comparison purposes. Gels are run at 150V for 1 hour 15 mins using ThermoFisher's XCell SureLock Mini-Cell system. Gels are then transferred to nitrocellulose membranes using the iBlot 2 Dry Blotting System, p0 programme, (ThermoFisher, UK) according to the manufacturer's instructions. Initially, a total protein stain is performed following the manufacturer's instructions (Revert™ 700 Total Protein Stain for Western Blot Normalization; Licor, UK, 926-11011), and this is followed by immunoblotting of the membranes. The membranes are specifically transferred to falcon tubes where they are first blocked with the Licor Odyssey® blocking buffer at room temperature for 1 hour, followed by probing with suitable primary antibodies resuspended in the Licor Odyssey® blocking buffer in a cold room set at 4° C. overnight. The following day membranes are washed 3× in PBS-T (0.05%) for 5 mins each time and then probed with a suitable secondary antibody for 1.5 hours at room temperature. Secondary antibodies typically contain a fluorescent tag for visualisation purposes. Membranes are washed once again 2× in PBS-T (0.05%) for 5 mins each time followed by a final wash in 1×PBS for 5 mins. The membranes are imaged using an Odyssey® Fc Licor imaging system.
The antibodies used in this experiment were: primary antibody: anti-Rep antibody 303.9 clone (Progen, 61069) and Secondary antibody: LICOR anti-mouse 800 nm (LICOR, 926-32210).
We also tested the ability of the AAV helper functions to induce the activity of the best performing promoter FORN-pJB42. Transfections were carried out as previously described. Conditions are as follows, FORN-pJB42 controlling expression of Rep78 was transfected with and without the adenovirus helper functions. […]

Molecule | Concentration determined to be optimum to induce expression [1] | Rep78 expression in the presence of forskolin [2] | Rep78 expression in the absence of forskolin [2] | Promoter activity (Rep78) in the presence of helper functions, absence of forskolin ([2]; adenovirus helper functions (pHelper), DMSO) | Promoter activity (Rep78) in the presence of helper functions and forskolin ([2]; adenovirus helper functions and 10 μM forskolin)
C=C[C@@]1(C)CC(=O)[C@]2(O)[C@@]3(C)[C@@H](O)CCC(C)(C)[C@@H]3[C@H](O)[C@H](OC(C)=O)[C@@]2(C)O1 [Forskolin] | about 18 μM | – | – | – | –
B1 | – | strong expression | no Rep78 expression | – | –
B2 | – | strong expression | no Rep78 expression | – | –
B3 | – | strong expression | no Rep78 expression | activated | full activity
